Key:
[1] = biological target: PAM_(SS1574), recombinant full-length PAM of GAS strain SS1574 (emm224) (Streptococcus pyogenes (GAS) strain SS1574); test: AUC
[2] = biological target: human plasma plasminogen (human); test: SPR
[3] = biological target: PAM_(SS1572), recombinant full-length PAM of GAS strain SS1572 (emm223) (Streptococcus pyogenes (GAS) strain SS1572); test: AUC
[4] = biological target: PAM_(NS223), recombinant full-length PAM of GAS strain NS223 (emm91) (Streptococcus pyogenes (GAS) strain NS223); test: AUC
[5] = biological target: PAM_(NS88.2), recombinant full-length PAM of GAS strain NS88.2 (emm98.1) (Streptococcus pyogenes (GAS) strain NS88.2); test: AUC
[6] = biological target: PAM on cells of GAS strain SS1574 (Streptococcus pyogenes (endogenous in strain SS1574)) (UniProt P49054); test: flow cytometry on cells
[7] = biological target: PAM_(SS1448), recombinant full-length PAM of GAS strain SS1448 (emm86.2) (Streptococcus pyogenes (GAS) strain SS1448); test: AUC
[8] = biological target: PAM_(NS455), recombinant full-length PAM of GAS strain NS455 (emm52) (Streptococcus pyogenes (GAS) strain NS455); test: AUC

**Q.** How did the stoichiometry N [1] turn out when “PAM_(SS1574), recombinant full-length PAM of GAS strain SS1574 (emm224) (natural protein)” was run?
**A.** The stoichiometry N was 2.

**Q.** And the Kd [2]?
**A.** The Kd was 1.1 nM.

**Q.** And the koff [2]?
**A.** Its koff is 0.00011 s⁻¹.

**Q.** How did the stoichiometry N [3] turn out when “PAM_(SS1572), recombinant full-length PAM of GAS strain SS1572 (emm223) (natural protein)” was run?
**A.** Its stoichiometry N is 2.

**Q.** What about the Kd [2] of the same substance?
**A.** The Kd was 4.9 nM.

**Q.** And the koff [2]?
**A.** The koff was 0.00059 s⁻¹.

**Q.** And the kon [2]?
**A.** The kon was 120000 M⁻¹ s⁻¹.

**Q.** Which results are given for “PAM_(AP53), recombinant full-length PAM of GAS strain AP53 (emm53) (natural protein)”?
**A.** Kd [2]: 1.6 nM; koff [2]: 0.00056 s⁻¹; kon [2]: 340000 M⁻¹ s⁻¹

**Q.** Which results are given for “PAM_(NS223), recombinant full-length PAM of GAS strain NS223 (emm91) (natural protein)”?
**A.** stoichiometry N [4]: 2; Kd [2]: 1.4 nM; koff [2]: 0.00033 s⁻¹; kon [2]: 240000 M⁻¹ s⁻¹

**Q.** For “PAM_(AP53_short) (residues 42-175 of PAM_(AP53)) (domain or fragment)”, which koff [2] is on record?
**A.** Its koff is 0.00077 s⁻¹.

**Q.** Which results are given for “PAM_(NS88.2), recombinant full-length PAM of GAS strain NS88.2 (emm98.1) (natural protein)”?
**A.** stoichiometry N [5]: 2; Kd [2]: 1.2 nM; koff [2]: 0.00023 s⁻¹

**Q.** Which amount of hPg bound, fold of strain AP53 [6] does the source give for “human plasma plasminogen (natural protein)” here?
**A.** The amount of hPg bound, fold of strain AP53 was under 2 fold.

**Q.** What does the source list for “PAM_(SS1448), recombinant full-length PAM of GAS strain SS1448 (emm86.2) (natural protein)”?
**A.** stoichiometry N [7]: 2; Kd [2]: 28 nM; koff [2]: 0.001 s⁻¹; kon [2]: 36000 M⁻¹ s⁻¹

**Q.** How did the stoichiometry N [8] turn out when “PAM_(NS455), recombinant full-length PAM of GAS strain NS455 (emm52) (natural protein)” was run?
**A.** Its stoichiometry N is 2.

**Q.** What about the koff [2] of the same substance?
**A.** Its koff is 0.00017 s⁻¹.

**Q.** And the kon [2]?
**A.** The kon was 540000 M⁻¹ s⁻¹.
